Assay results: patent US9249224B2 (RINAT NEUROSCIENCE CORP., priority 2011, dated 2016)
Where “and” joins values, the source holds several entries; their conditions need not be identical. Equal entries are not always repeated.

Key:
human GHR = target: T1, human GHR (Homo sapiens, UniProt P10912); test: Biacore kinetics and affinity, captured IgG, human GHR analyte, 25° C.; type: binding; settings: IgG immobilized by capture
T1 construct: his-tagged monomers of amino acids 31-235 of the extracellular domain of the human or cyno GHR
T1 sequence (P10912 49-253): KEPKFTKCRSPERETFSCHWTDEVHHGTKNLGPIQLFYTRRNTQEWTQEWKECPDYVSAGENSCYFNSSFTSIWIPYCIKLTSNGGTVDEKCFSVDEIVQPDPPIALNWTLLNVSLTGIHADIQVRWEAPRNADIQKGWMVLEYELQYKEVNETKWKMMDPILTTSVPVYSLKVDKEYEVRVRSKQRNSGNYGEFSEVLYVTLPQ
Procedure: The affinity of a mouse anti-GHR antibody, Ab13, to human and cyno GHR was measured on a Biacore™ 2000 biosensor (GE Lifesciences™, Piscataway N.J.). An anti-mouse Ig sensor surface was prepared using a Biacore™ CM5 chip and reagents from the Biacore™ mouse antibody capture kit (GE Lifesciences™, Catalog# BR-1008-38), using instructions provided by the manufacturer.
The kinetics assay was run using a kinetic titration methodology as described in Karlsson et al., 2006, Anal. Biochem 349, 136-147. The mouse antibody, Ab13, was captured onto downstream flow cells at 0.5 μg/mL at a flow rate of 5 μL/min for 1 minute, 2 minutes and 4 minutes on flow cells 2, 3 and 4 respectively. Flow cell 1 was used as a reference surface. […]
The affinities of a humanized GHR antibody, SS1, and a chimeric molecule comprising the Fab of Ab13 fused to a human Fc domain (“Ab13-hFc”) to human and cyno GHR was measured on a Biacore™ 2000 biosensor (GE Lifesciences™ Piscataway N.J.). […]
The kinetics assay was run using a methodology with varying dissociation times as described in Katsamba et al., 2006, Anal. Biochem 352, 208-221. […] After the analyte injection, dissociation was monitored for 30 minutes (for the 400 nM GHR cycle) or 30 seconds (all other cycles) followed by regeneration of all flow cells with two 30-second injections of 75 mM phosphoric acid. […]

IGFBP-3 = test: Serum IGFBP-3 levels in cynomolgus monkeys after a single antibody dose; type: in vivo, cynomolgus monkey; settings: for serum IGFBP-3 levels (% change from baseline) / serum IGFBP-3 decrease below baseline: cynomolgus monkeys
Procedure: To determine if GHR antagonist monoclonal antibodies can affect IGF-1, IGFBP-3, and ALS levels in vivo by inhibiting the function of GHR, the effect of humanized anti-human GHR antibody SS1 was tested in cynomolgus monkeys. A dose-response study was conducted to test for changes in IGF-1, IGFBP-3, and ALS levels following a single dose of SS1. Eight naïve female cynomolgus monkeys were injected intravenously with a single dose of SS1 or negative control human IgG2, in 1×PBS 0.01% Tween™ 20. Two monkeys were dosed with 30 mg/kg SS1, two were dosed with 10 mg/kg SS1, two were dosed with 3 mg/kg SS1, and two were dosed with 30 mg/kg negative control human IgG2Δa on Day 1. […] Serum was also taken from the 30 mg/kg SS1 and negative control treated animals at 864 h post-dose.
Serum samples were analyzed for changes in IGFBP-3 levels compared to baseline using an R&D Systems™ Quantikine™ human IGFBP-3 immunoassay kit (cat. #DGB300).

B1: SS1: humanized GHR antagonist antibody; VL SEQ ID NO: 7, VH SEQ ID NO: 8; hIgG2Δa heavy chain SEQ ID NO: 134, light chain SEQ ID NO: 135 (antibody)
heavy: EVQLVESGGGLVKPGGSLRLSCAASGFTFSDAWMDWVRQAPGKGLEWVAEIRSKANYHATYYAESVKGRFTISRDDSKNTLYLQMNSLKTEDTAVYYCTLIRDYWGQGTLVTVSSASTKGPSVFPLAPCSRSTSESTAALGCLVKDYFPEPVTVSWNSGALTSGVHTFPAVLQSSGLYSLSSVVTVPSSNFGTQTYTCNVDHKPSNTKVDKTVERKCCVECPPCPAPPVAGPSVFLFPPKPKDTLMISRTPEVTCVVVDVSHEDPEVQFNWYVDGVEVHNAKTKPREEQFNSTFRVVSVLTVVHQDWLNGKEYKCKVSNKGLPSSIEKTISKTKGQPREPQVYTLPPSREEMTKNQVSLTCLVKGFYPSDIAVEWESNGQPENNYKTTPPMLDSDGSFFLYSKLTVDKSRWQQGNVFSCSVMHEALHNHYTQKSLSLSPGK
light: EIVLTQSPGTLSLSPGERATLSCTATSSVSSSYLNWYQQKPGQAPRLLIYSTSNLASGIPDRFSGSGSGTDFTLTISRLEPEDFAVYYCHQYHRSTPTFGGGTKVEIKRTVAAPSVFIFPPSDEQLKSGTASVVCLLNNFYPREAKVQWKVDNALQSGNSQESVTEQDSKDSTYSLSSTLTLSKADYEKHKVYACEVTHQGLSSPVTKSFNRGEC
modifications: Humanized and/or affinity matured antibody sequence
- ka (human GHR): 77000 M⁻¹ s⁻¹ and 74000 M⁻¹ s⁻¹
- kd (human GHR): 6.4e-05 s⁻¹ and 7.7e-05 s⁻¹
- serum IGFBP-3 levels (% change from baseline) (IGFBP-3; SS1 3 mg/kg IV single dose, 24 h post-injection): −18.75 +/− 1.25%
- serum IGFBP-3 levels (% change from baseline) (IGFBP-3; SS1 3 mg/kg IV single dose, 48 h post-injection): −22.8 +/− 3.8%
- serum IGFBP-3 levels (% change from baseline) (IGFBP-3; SS1 3 mg/kg IV single dose, 72 h post-injection): −36.45 +/− 6.65%
- serum IGFBP-3 levels (% change from baseline) (IGFBP-3; SS1 3 mg/kg IV single dose, 96 h post-injection): −37.35 +/− 5.05%
- serum IGFBP-3 levels (% change from baseline) (IGFBP-3; SS1 3 mg/kg IV single dose, 120 h post-injection): −38.25 +/− 4.85%
- serum IGFBP-3 levels (% change from baseline) (IGFBP-3; SS1 3 mg/kg IV single dose, 144 h post-injection): −46.8 +/− 0.6%
- serum IGFBP-3 levels (% change from baseline) (IGFBP-3; SS1 3 mg/kg IV single dose, 192 h post-injection): −32.55 +/− 1.35%
- serum IGFBP-3 levels (% change from baseline) (IGFBP-3; SS1 3 mg/kg IV single dose, 312 h post-injection): 22.4 +/− 1.9%
- serum IGFBP-3 levels (% change from baseline) (IGFBP-3; SS1 3 mg/kg IV single dose, 336 h post-injection): 28.15 +/− 12.25%
- serum IGFBP-3 decrease below baseline (IGFBP-3; SS1 3 mg/kg IV single dose, by 72 hours): about 36%
- serum IGFBP-3 decrease below baseline (IGFBP-3; SS1 3 mg/kg IV single dose, by 144 hours): about 47%
- serum IGFBP-3 levels (% change from baseline) (IGFBP-3; SS1 10 mg/kg IV single dose, 24 h post-injection): −23.95 +/− 3.35%
- serum IGFBP-3 levels (% change from baseline) (IGFBP-3; SS1 10 mg/kg IV single dose, 48 h post-injection): −28.4 +/− 2.9%
- serum IGFBP-3 levels (% change from baseline) (IGFBP-3; SS1 10 mg/kg IV single dose, 72 h post-injection): −37.9 +/− 2.4%
- serum IGFBP-3 levels (% change from baseline) (IGFBP-3; SS1 10 mg/kg IV single dose, 96 h post-injection): −40.95 +/− 0.35%
- serum IGFBP-3 levels (% change from baseline) (IGFBP-3; SS1 10 mg/kg IV single dose, 120 h post-injection): −46.4 +/− 1.1%
- serum IGFBP-3 levels (% change from baseline) (IGFBP-3; SS1 10 mg/kg IV single dose, 144 h post-injection): −51.05 +/− 8.85%
- serum IGFBP-3 levels (% change from baseline) (IGFBP-3; SS1 10 mg/kg IV single dose, 192 h post-injection): −45.95 +/− 6.35%
- serum IGFBP-3 levels (% change from baseline) (IGFBP-3; SS1 10 mg/kg IV single dose, 312 h post-injection): −38.7 +/− 9.6%
- serum IGFBP-3 levels (% change from baseline) (IGFBP-3; SS1 10 mg/kg IV single dose, 336 h post-injection): −42.25 +/− 1.85%
- serum IGFBP-3 decrease below baseline (IGFBP-3; SS1 10 mg/kg IV single dose, by 72 hours): ~38%
- serum IGFBP-3 decrease below baseline (IGFBP-3; SS1 10 mg/kg IV single dose, by 144 hours): ~51%
- serum IGFBP-3 levels (% change from baseline) (IGFBP-3; SS1 30 mg/kg IV single dose, 24 h post-injection): −10.6 +/− 4.6%
- serum IGFBP-3 levels (% change from baseline) (IGFBP-3; SS1 30 mg/kg IV single dose, 48 h post-injection): −15.75 +/− 9.35%
- serum IGFBP-3 levels (% change from baseline) (IGFBP-3; SS1 30 mg/kg IV single dose, 72 h post-injection): −22.95 +/− 16.15%
- serum IGFBP-3 levels (% change from baseline) (IGFBP-3; SS1 30 mg/kg IV single dose, 96 h post-injection): −29.4 +/− 13.9%
- serum IGFBP-3 levels (% change from baseline) (IGFBP-3; SS1 30 mg/kg IV single dose, 120 h post-injection): −38.15 +/− 9.45%
- serum IGFBP-3 levels (% change from baseline) (IGFBP-3; SS1 30 mg/kg IV single dose, 144 h post-injection): −45.7 +/− 11.9%
- serum IGFBP-3 levels (% change from baseline) (IGFBP-3; SS1 30 mg/kg IV single dose, 192 h post-injection): −31.05 +/− 16.05%
- serum IGFBP-3 levels (% change from baseline) (IGFBP-3; SS1 30 mg/kg IV single dose, 312 h post-injection): −40.65 +/− 5.05%
- serum IGFBP-3 levels (% change from baseline) (IGFBP-3; SS1 30 mg/kg IV single dose, 336 h post-injection): −39.45 +/− 0.85%
- serum IGFBP-3 decrease below baseline (IGFBP-3; SS1 30 mg/kg IV single dose, by 72 hours): ~23%
- serum IGFBP-3 decrease below baseline (IGFBP-3; SS1 30 mg/kg IV single dose, by 144 hours): ~46%
- effect on serum IGFBP-3 levels in cynomolgus monkey (IGFBP-3; single IV dose 3, 10 or 30 mg/kg): dose dependently reduces serum IGFBP-3 levels
